Data taken from the supplement of paper PMC10567573.

B1: CCND1 (parent)
chain: IRRAYPDANLLNDRVLRAMLKAEE

Variants of: B1
Experiment: protein stability index of a GFP-peptide fusion (GPS, HEK-293T) (PSI 1-6); higher = more stable
Details: c terminus: a fixed tail appended
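Also: lentivirally expressed fusions sorted by FACS into six bins by GFP to DsRed ratio, PSI derived from sequencing read proportions per bin multiplied by bin number.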

Variant	protein stability index
IRRAYPDANLLNQRVLRAMLKAEE	3.34
IRRAYPDANLLNRRVLRAMLKAEE	3.68
IRRAYPDANLLNARVLRAMLKAEE	2.28
IRRAYPDANLLNFRVLRAMLKAEE	2.34
IRRAYPDANLLNNRVLRAMLKAEE	2.02
IRRAYPDANLLNWRVLRAMLKAEE	2.35
IRRAYPDANLLNPRVLRAMLKAEE	2.61
IRRAYPDANLLNMRVLRAMLKAEE	2.66
IRRAYPDANLLNKRVLRAMLKAEE	2.45
IRRAYPDANLLNHRVLRAMLKAEE	2.2
IRRAYPDANLLNCRVLRAMLKAEE	2.72
IRRAYPDANLLNSRVLRAMLKAEE	2.37
IRRAYPDANLLNIRVLRAMLKAEE	2.91
IRRAYPDANLLNLRVLRAMLKAEE	2.02
IRRAYPDANLLNVRVLRAMLKAEE	1.54
IRRAYPDANLLNTRVLRAMLKAEE	2.52
IRRAYPDANLLHDRVLRAMLKAEE	2.5
IRRAYPDANLLFDRVLRAMLKAEE	1.9
IRRAYPDANLLGDRVLRAMLKAEE	3.05
IRRAYPDANLLRDRVLRAMLKAEE	2.73
IRRAYPDANLLPDRVLRAMLKAEE	1.84
IRRAYPDANLLCDRVLRAMLKAEE	2.51
IRRAYPDANLLYDRVLRAMLKAEE	2.52
IRRAYPDANLLKDRVLRAMLKAEE	2.15

Variant	protein stability index
IRRAYPDANLLADRVLRAMLKAEE	3.21
IRRAYPDANLLEDRVLRAMLKAEE	3.41
IRRAYPDANLLDDRVLRAMLKAEE	2.87
IRRAYPDANLLSDRVLRAMLKAEE	2.11
IRRAYPDANLLWDRVLRAMLKAEE	2.19
IRRAYPDANLLQDRVLRAMLKAEE	2.39
IRRAYPDANLLNDRLLRAMLKAEE	1.9
IRRAYPDANLLNDRNLRAMLKAEE	3.25
IRRAYPDANLLNDRQLRAMLKAEE	4.11
IRRAYPDANLLNDRMLRAMLKAEE	1.9
IRRAYPDANLLNDRSLRAMLKAEE	3.27
IRRAYPDANLLNDRWLRAMLKAEE	3.47
IRRAYPDANLLNDRALRAMLKAEE	3.31
IRRAYPDANLLNDRILRAMLKAEE	1.99
IRRAYPDANLLNDRELRAMLKAEE	3.12
IRRAYPDANLLNDRTLRAMLKAEE	3.33
IRRAYPDANLLNDRCLRAMLKAEE	2.61
IRRAYPDANLLNDRFLRAMLKAEE	2.41
IRRAYPDANLLNDRGLRAMLKAEE	3.37
IRRAYPDANLLNDRRLRAMLKAEE	3.57
IRRAYPDANLLNDRDLRAMLKAEE	3.5
IRRAYPDANLLNDRHLRAMLKAEE	4.36
IRRAYPDANLLNDRPLRAMLKAEE	3.51
IRRAYPDANLLNDRVLEAMLKAEE	2.22

Variant	protein stability index
IRRAYPDANLLNDRVLMAMLKAEE	3.21
IRRAYPDANLLNDRVLDAMLKAEE	2.12
IRRAYPDANLLNDRVLIAMLKAEE	1.82
IRRAYPDANLLNDRVLCAMLKAEE	2.46
IRRAYPDANLLNDRVLPAMLKAEE	3.46
IRRAYPDANLLNDRVLQAMLKAEE	2.68
IRRAYPDANLLNDRVLLAMLKAEE	3.01
IRRAYPDANLLNDRVLHAMLKAEE	2.31
IRRAYPDANLLNDRVLFAMLKAEE	2.1
IRRAYPDANLLNDRVLNAMLKAEE	2.61
IRRAYPDANLLNDRVNRAMLKAEE	3.65
IRRAYPDANLLNDRVKRAMLKAEE	3.67
IRRAYPDANLLNDRVYRAMLKAEE	3.66
IRRAYPDANLLNDRVVRAMLKAEE	2.94
IRRAYPDANLLNDRVQRAMLKAEE	3.53
IRRAYPDANLLNDRVHRAMLKAEE	3.38
IRRAYPDANLLNDRVGRAMLKAEE	2.99
IRRAYPDANLLNDRVPRAMLKAEE	4.08
IRRAYPDANLLNDRVERAMLKAEE	4.28
IRRAYPDANLLNDRVARAMLKAEE	3.43
IRRAYPDANLLNDRVSRAMLKAEE	4.52
IRRAYPDANLLNDRVIRAMLKAEE	2.85
IRRAYPDANLWNDRVLRAMLKAEE	2.02
IRRAYPDANLVNDRVLRAMLKAEE	2.72

Variant	protein stability index
IRRAYPDANLSNDRVLRAMLKAEE	3.01
IRRAYPDANLNNDRVLRAMLKAEE	1.97
IRRAYPDANLINDRVLRAMLKAEE	2.43
IRRAYPDANLQNDRVLRAMLKAEE	3.79
IRRAYPDANLKNDRVLRAMLKAEE	3.33
IRRAYPDANLTNDRVLRAMLKAEE	3.04
IRRAYPDANLPNDRVLRAMLKAEE	2.48
IRRAYPDANLMNDRVLRAMLKAEE	1.92
IRRAYPDANLLNDTVLRAMLKAEE	3.07
IRRAYPDANLLNDFVLRAMLKAEE	2.56
IRRAYPDANLLNDAVLRAMLKAEE	2.3
IRRAYPDANLLNDGVLRAMLKAEE	1.96
IRRAYPDANLLNDYVLRAMLKAEE	1.84
IRRAYPDANLLNDHVLRAMLKAEE	1.74
IRRAYPDANLLNDIVLRAMLKAEE	1.03
IRRAYPDANLLNDMVLRAMLKAEE	2.81
IRRAYPDANLLNDQVLRAMLKAEE	2.29
IRRAYPDANLLNDCVLRAMLKAEE	2.41
IRRAYPDANLLNDDVLRAMLKAEE	1.56
IRRAYPDANLLNDEVLRAMLKAEE	2.84
IRRAYPDANLLNDKVLRAMLKAEE	1.83
IRRAYPDANLLNDLVLRAMLKAEE	1.99
